Publication PMC9966725, “Preclinical Evaluation of a Lead Specific Chelator (PSC) Conjugated to Radiopeptides for ^203Pb and ^212Pb-Based Theranostics” (Pharmaceutics, 2023)

Columns and labels:
[1] = after β decay of ^212Pb; cited from earlier work
Text: Potential ambiguity in these predictions arises due to the nature of the ^212Pb decay series. The decay of ^212Pb to ^212Bi might lead to a decoupling of the progeny ^212Bi from the chelator, adding uncertainty to the biodistribution of radioactivity, especially the α-emitters (i.e., ^212Bi, ^212Po). Using particle and heavy ion transport code system (PHITS) modeling, we have shown that α-particles contribute to more than 90% of dose deposition in 10 µm diameter single cells and 1 cm diameter micro-metastasis, while the dose from β-particles becomes more significant ...

[2] = in vivo; design: species or system mice; conditions: female, athymic nude, mouse, total radioactivity; for tissue uptake at 1 h: iv, 74 kBq
Experimental: (§1) Biodistribution of [^212Pb]Pb-PSC-PEG-T and progeny ^212Bi^3+ was determined in two animal models, including female naïve CD-1Elite mice and athymic mice bearing AR42J tumor xenografts. SSTR2-positve AR42J cells were cultured in 10% Minimum Essential Medium (MEM) supplemented with 10% fetal bovine serum (FBS), 100 units mL^−1 penicillin, and 100 units mL^−1 streptomycin 37 °C in a humidified atmosphere (5% CO2). All animal studies were performed in accordance with the Guide for the Care and Use of Laboratory Animals, according to protocols approved by the University of Iowa Animal Care and Use Committee (protocol#1122453 approved on 16 February 2022). Xenograft of AR42J tumor was developed by subcutaneous (s.c.) injection of 1 × 10^6 cells at the left shoulder of female athymic nude mice. [^212Pb]Pb-PSC-PEG-T was radiolabeled and purified as described above, and kept at room temperature away from light for 3 h before injection, to allow progeny ^212Bi to approach equilibrium before injection. Upon assay, 74 kBq [^212Pb]Pb-PSC-PEG-T (peptide mass = 5–10 pmole) were injected via tail vein (n = 2–3). Animals were euthanized at designated time points (1, 5, 24 h for naïve CD-1 mice; 1, 4 h for AR42J-bearing mice). Organs of interest and tumors were collected, rinsed, and weighed. Radioactivity of ^212Pb and ^212Bi in each sample was measured on an automated gamma counter by 238 keV and 583 keV gamma peaks, respectively. ^212Bi was purified from the generator eluate on RE2 resin and collected in pH = 6 sodium acetate as described above. Biodistribution of free ^212Bi in normal organs was determined at 2 h post injection of 74 kBq ^212Bi in naïve female CD-1 Elite mice (n = 3). Radioactivity in samples was decay corrected and data were expressed as percent injected dose per gram of tissue (%ID/g). SPECT imaging of [^203Pb]Pb-PSC-PEG-T and [^212Pb]Pb-PSC-PEG-T in female athymic nude mice bearing AR42J xenograft (n = 2) was conducted on Bioemtech Gamma-Eye Imaging system (Bioemtech, Athens, Greece) with 30–500 keV dynamic range and 1.9 mm spatial resolution. Whole body 2D-SPECT imaging of [^203Pb]Pb-PSC-PEG-T and [^212Pb]Pb-PSC-PEG-T were collected at 3 h and 24 h (n = 2) post injection of 1.8 MBq [^203Pb]Pb-PSC-PEG-T (52 MBq nmole^−1) and 3.7 MBq [^212Pb]Pb-PSC-PEG-T (20 MBq nmole^−1). SPECT images were generated by acquiring ten 30 s projections. Imaging data were reconstructed and normalized to percent of injected dose (%ID) in tumor and kidneys based on region of interest (ROI) analysis on VISUAL-Eyes software (Bioemtech, Athens, Greece). Animals were euthanized after conclusion of the study at 24 h post injection. Tumor xenografts and organs of interest were collected and weighed. Radioactivity of ^203Pb or ^212Pb was determined on automated gamma counter and normalized to %ID/g.

[3] = Radiochemical stability of radiometal complex in saline, radio-iTLC; type: physicochemical; conditions: for radiochemical purity of progeny: progeny of 37 MBq mL^-1 [^212Pb]Pb-PSC-PEG-T, 24 h in saline at room temperature; for radiochemical purity: single species, 7.4 MBq mL^-1, n = 2
Experimental: (§2) Using [^203Pb]Pb-PSC-PEG-T surrogate, radiochemical stability of [^203Pb]Pb-PSC-PEG-T in saline was monitored for 72 h. Similarly, single species of [^212Bi]Bi-PSC-PEG-T in saline were also monitored for 5 h (five half-lives of ^212Bi). [^203Pb]Pb-PSC-PEG-T and [^212Bi]Bi-PSC-PEG-T were radiolabeled and purified on Sep-Pak® C18 SPE columns as previously described. Next, 7.4 MBq mL^−1 of purified [^203Pb]Pb-PSC-PEG-T and [^212Bi]Bi-PSC-PEG-T were stored in saline supplemented with 5% EtOH and 1 mg mL^−1 sodium ascorbate for 72 h and 5 h, respectively, followed by analysis of radiochemical purity by radio-iTLC method. Then, radiochemical stability of [^212Pb]Pb-PSC-PEG-T and progeny [^212Bi]Bi-PSC-PEG-T were determined by radio-iTLC after storage of 37 MBq mL^−1 radiolabeled [^212Pb]Pb-PSC-PEG-T in saline for 24 h, and further confirmed by radio-HPLC analysis. In human serum, radiochemical stability of [^212Pb]Pb-PSC-PEG-T and progeny [^212Bi]Bi-PSC-PEG-T were determined after incubation of 3.7 MBq [^212Pb]Pb-PSC-PEG-T in 1 mL human serum at 37 °C for 24 h. In addition, metabolic stability of Pb-PSC-PEG-T radiopeptide in serum was determined by radio-HPLC after incubating [^203Pb]Pb-PSC-PEG-T surrogate in human serum for 55 h (five half-lives of ^212Pb). Following the incubation, serum protein was precipitated in ice-cold methanol (1:1.5 v/v) for 10 min, followed by centrifugation at 10,000× g for 10 min. The supernatant was collected and analyzed on radio-HPLC.
In radio-iTLC analysis, 0.1 M NaOAc with 1 mM DTPA was used as mobile phase for ^203Pb, ^212Pb, ^212Bi. Citric acid (0.1 M) was used as mobile phase for ^68Ga. Upon radio-iTLC analysis, 2 µL aliquot sample was spotted on the radio-iTLC strips (2 × 10 cm) and developed in the mobile phase. Radioactivity of ^203Pb and ^212Pb was measured on NaI(Tl) gamma spectroscope using 279 keV and 238 keV gamma peaks, respectively. Radioactivity of ^212Bi on radio-iTLC was measured on the Ludlum Model 3030 α-particle counter. Radio-HPLC analysis was conducted on Agilent 1260 (Agilent, Santa Clara, CA, USA). Binary mobile phases were applied to run 5–60% phase B (acetonitrile) over phase A (0.1% TFA in water) over 10 min on ZORBAX RR Eclipse XDB-C18 column (4.6 × 150 mm, 5 µm). Radioactivity of ^203Pb was measured on flow-through 105S-1 single channel radiation detector (Corroll & Ramsey, Fort Collins, CO, USA). To measure ^212Pb and ^212Bi activity on radio-HPLC, eluate was collected every 10 s on a HPLC fraction collector. Radioactivity of ^212Pb and ^212Bi in each collected eluate was measured on Cobra II automated gamma counter using 238 keV and 583 keV gamma peaks immediately after collection.

[4] = In vivo biodistribution in naïve tumor-free CD-1 Elite mice; conditions: female, mouse, iv, 74 kBq
Experimental: as §1

[5] = system: SSTR2-positive AR42J xenografts; experiment: in vivo; design: species or system mice; conditions: female, athymic nude, mouse, iv, 74 kBq, 1 h
Experimental: as §1

[6] = Stability of radiopeptide in saline, radio-HPLC; type: physicochemical; conditions: 24 h storage in saline, C18, fractions counted on gamma counter
Experimental: as §2, with “Following the incubation, serum protein was precipitated in ice-cold methanol (1:1.5 v/v) for 10 min, followed by centrifugation at 10,000× g for 10 min.” left out, “radio-HPLC. […]” for “radio-HPLC.”

[7] = total radioactivity, accumulation in kidneys
[8] = total radioactivity, accumulation in pancreas

O=C(O)CN1CCN(CC(=O)O)CCN(CC(=O)O)CCN(CC(=O)O)CC1 [DOTA, 1,4,7,10-tetraazacyclododecane-1,4,7,10-tetraacetic acid]
^212Bi^3+ released from chelator [1]: approximately 36%

C[C@@H](O)[C@@H]1NC(=O)[C@H](CCCCN)NC(=O)[C@@H](Cc2c[nH]c3ccccc23)NC(=O)[C@H](Cc2ccc(O)cc2)NC(=O)[C@@H](NC(=O)[C@@H](Cc2ccccc2)NC(=O)CCOCCOCCNC(=O)CN2CCN(CC(=O)O)CCN(CC(N)=O)CCN(CC(=O)O)CC2)CSSC[C@@H](C(=O)N[C@H](CO)[C@@H](C)O)NC1=O [[^203Pb]Pb-PSC-PEG-T, metal not drawn]
tissue uptake at 24 h ([2]; activity in lungs): 0.6 %ID/g
tissue uptake dose at 3 h ([2]; kidneys uptake (SPECT ROI)): 8.3 %ID
tissue uptake dose at 24 h ([2]; kidneys uptake (SPECT ROI)): 0.8 %ID
tissue uptake dose at 3 h ([2]; tumor uptake (SPECT ROI)): 1.8 %ID
tissue uptake dose at 24 h ([2]; tumor uptake (SPECT ROI)): 1.5 %ID

C[C@@H](O)[C@@H]1NC(=O)[C@H](CCCCN)NC(=O)[C@@H](Cc2c[nH]c3ccccc23)NC(=O)[C@H](Cc2ccc(O)cc2)NC(=O)[C@@H](NC(=O)[C@@H](Cc2ccccc2)NC(=O)CCOCCOCCNC(=O)CN2CCN(CC(=O)O)CCN(CC(N)=O)CCN(CC(=O)O)CC2)CSSC[C@@H](C(=O)N[C@H](CO)[C@@H](C)O)NC1=O [[^203Pb]Pb-PSC-PEG-T] [metal not drawn]
free ^203Pb ([3]; 72 h storage in saline with 5% EtOH and 1 mg mL^-1 sodium ascorbate, 7.4 MBq mL^-1, 1 and 5 µM precursor, n = 2): less than 1%
^203Pb remained in PSC-PEG-T ([3]; 72 h storage in saline with 5% EtOH and 1 mg mL^-1 sodium ascorbate, 7.4 MBq mL^-1, regardless of PSC-PEG-T precursor concentration (1 and 5 µM), n = 2): More than 99%

C[C@@H](O)[C@@H]1NC(=O)[C@H](CCCCN)NC(=O)[C@@H](Cc2c[nH]c3ccccc23)NC(=O)[C@H](Cc2ccc(O)cc2)NC(=O)[C@@H](NC(=O)[C@@H](Cc2ccccc2)NC(=O)CCOCCOCCNC(=O)CN2CCN(CC(=O)O)CCN(CC(N)=O)CCN(CC(=O)O)CC2)CSSC[C@@H](C(=O)N[C@H](CO)[C@@H](C)O)NC1=O [[^212Bi]Bi-PSC-PEG-T, metal not drawn]
tissue uptake at 1 h ([2]; accumulation in bones): 2.5 %ID/g
tissue uptake at 1 h ([2]; accumulation in kidneys): 38.1 %ID/g

C[C@@H](O)[C@@H]1NC(=O)[C@H](CCCCN)NC(=O)[C@@H](Cc2c[nH]c3ccccc23)NC(=O)[C@H](Cc2ccc(O)cc2)NC(=O)[C@@H](NC(=O)[C@@H](Cc2ccccc2)NC(=O)CCOCCOCCNC(=O)CN2CCN(CC(=O)O)CCN(CC(N)=O)CCN(CC(=O)O)CC2)CSSC[C@@H](C(=O)N[C@H](CO)[C@@H](C)O)NC1=O [[^212Bi]Bi-PSC-PEG-T] [metal not drawn]
accumulation in kidneys ([4]; 1 h): 45.9 ± 3.7 %ID/g
accumulation in pancreas ([4]; 1 h): 7.3 %ID/g
activity remained in blood ([4]; 1 h): less than 0.2 %ID/g
accumulation in kidneys ([4]; 5 h): 29.8 %ID/g
accumulation in pancreas ([4]; 5 h): 3.5 %ID/g
residual activity in kidneys ([4]; 24 h): 3.1 ± 1.4 %ID/g
accumulation in adrenal glands [5]: 8.1 %ID/g
accumulation in liver [5]: 2.1 %ID/g
accumulation in spleen [5]: 1.4 %ID/g
radiochemical purity of progeny ([3]; 1 µM PSC-PEG-T): 91.8%
radiochemical purity of progeny ([3]; 3 µM PSC-PEG-T): 94.8%
radiochemical purity of progeny ([3]; 5 µM PSC-PEG-T): 97.1%
radiochemical purity ([3]; 1 h incubation in saline (5% EtOH, 1 mg mL^-1 sodium ascorbate), 1 µM PSC-PEG-T precursor): 94.1%
radiochemical purity ([3]; 2 h incubation in saline (5% EtOH, 1 mg mL^-1 sodium ascorbate), 1 µM PSC-PEG-T precursor): 96.1%
radiochemical purity ([3]; 3 h incubation in saline (5% EtOH, 1 mg mL^-1 sodium ascorbate), 1 µM PSC-PEG-T precursor): 92.4%
radiochemical purity ([3]; 5 h incubation in saline (5% EtOH, 1 mg mL^-1 sodium ascorbate), 1 µM PSC-PEG-T precursor): 92.3%
radiochemical purity ([3]; 5 h incubation in saline (5% EtOH, 1 mg mL^-1 sodium ascorbate), 5 µM PSC-PEG-T precursor): > 98%
radiochemical purity (radiometal remained incorporated as radiopeptide) [6]: > 95%

C[C@@H](O)[C@@H]1NC(=O)[C@H](CCCCN)NC(=O)[C@@H](Cc2c[nH]c3ccccc23)NC(=O)[C@H](Cc2ccc(O)cc2)NC(=O)[C@@H](NC(=O)[C@@H](Cc2ccccc2)NC(=O)CCOCCOCCNC(=O)CN2CCN(CC(=O)O)CCN(CC(N)=O)CCN(CC(=O)O)CC2)CSSC[C@@H](C(=O)N[C@H](CO)[C@@H](C)O)NC1=O [[^212Pb]Pb-PSC-PEG-T, metal not drawn]
tissue uptake at 1 h [4, 7]: 47.1 ± 7.9 %ID/g
tissue uptake at 5 h [4, 7]: 26.6 %ID/g
tissue uptake at 1 h [4, 8]: 5.2 %ID/g
tissue uptake at 5 h [4, 8]: 2 %ID/g
tissue uptake at 1 h ([4]; total radioactivity, activity remained in blood): < 0.2 %ID/g
tissue uptake at 24 h ([4]; total radioactivity, residual activity in kidneys): 2.7 ± 1.2 %ID/g
